# From the supplement of paper PMC9233669
# This sample holds only a part of the variants without activity.
# What was measured:
# [1] = test system: biotinyl-Trp-oxazolone; experiment: self-aminoacylation, catalytic enhancement (BWO) (fold over background); higher = more active; k-Seq, kA / k0A0; sequences stand for … in GGGAAUGGAUCCACAUCUACGAAUUC…UUCACUGCAGACUUGACGAAGCUG
# Method in brief: (§1)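 Each biotinyl-aminoacyl-oxazolone, at 2–1250 μM, was incubated with mutagenized RNA pools (0.43 μM) carrying a 21-nt variable region. The 50 μL reactions contained HEPES/NaCl/KCl/MgCl2/CaCl2 buffer with 5% acetonitrile at pH 6.9–7.0 and ran for 90 minutes at room temperature. After streptavidin capture, RNA was measured by qPCR in triplicate and by Illumina sequencing, and catalytic enhancement was calculated as median kA over the uncatalyzed rate from a pseudo-first-order fit of per-sequence fraction reacted.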
# [2] = test system: biotinyl-Met-oxazolone; experiment: self-aminoacylation, catalytic enhancement (BMO) (fold over background); higher = more active; k-Seq, kA / k0A0; sequences stand for … in GGGAAUGGAUCCACAUCUACGAAUUC…UUCACUGCAGACUUGACGAAGCUG
# Method in brief: as §1
# [3] = test system: biotinyl-Ile-oxazolone; experiment: self-aminoacylation, catalytic enhancement (BIO) (fold over background); higher = more active; k-Seq, kA / k0A0; sequences stand for … in GGGAAUGGAUCCACAUCUACGAAUUC…UUCACUGCAGACUUGACGAAGCUG
# Method in brief: as §1
# [4] = test system: biotinyl-Val-oxazolone; experiment: self-aminoacylation, catalytic enhancement (BVO) (fold over background); higher = more active; k-Seq, kA / k0A0; sequences stand for … in GGGAAUGGAUCCACAUCUACGAAUUC…UUCACUGCAGACUUGACGAAGCUG
# Method in brief: as §1
# [5] = test system: biotinyl-Leu-oxazolone; experiment: self-aminoacylation, catalytic enhancement (BLO) (fold over background); higher = more active; k-Seq, kA / k0A0; sequences stand for … in GGGAAUGGAUCCACAUCUACGAAUUC…UUCACUGCAGACUUGACGAAGCUG
# Method in brief: as §1
# [6] = test system: biotinyl-Phe-oxazolone; experiment: self-aminoacylation, catalytic enhancement (BFO) (fold over background); higher = more active; k-Seq, kA / k0A0; sequences stand for … in GGGAAUGGAUCCACAUCUACGAAUUC…UUCACUGCAGACUUGACGAAGCUG
# Method in brief: as §1
Sequence,self-aminoacylation [1],self-aminoacylation [2],self-aminoacylation [3],self-aminoacylation [4],self-aminoacylation [5],self-aminoacylation [6]
AUUCACCUGGGUCAUCCGGUG [Fam2.2 aminoacylation ribozyme variant],9.13,11.2,7.06,7.4,13.3,75.6
CUGCUUCAAACAAUCGGUCCG [Fam1A.1 aminoacylation ribozyme variant],39.6,1.34,1.35,1.38,2.38,119
AUUCAGCAAGGUCAUCGGGUG [Fam2.2 aminoacylation ribozyme variant],7,6.23,4.51,4.9,7.63,47.9
AAGUUUCCUAAUAGUCGCAAC [Fam3.1 aminoacylation ribozyme variant],2.18,1.73,1.59,1.31,1.5,2.42
AUUACCCUGGUCUUCGGGUGA [Fam2.1 aminoacylation ribozyme variant],9.66,8.38,4.68,5.66,9.51,48.9
AUUGACCUCGGUCAUCGGGUG [Fam2.2 aminoacylation ribozyme variant],3.78,4.12,3.05,3.69,4.55,20.3
AUUCAAUUAGGUCAUCGGGUG [Fam2.2 aminoacylation ribozyme variant],5.33,6,3.56,3.44,7.25,42.1
ACGCACCUAGGUCAUCGGGUG [Fam2.2 aminoacylation ribozyme variant],4.93,4.23,3.42,3.55,3.1,29
CUACUUCAAACAAUCGGCCUG [Fam1A.1 aminoacylation ribozyme variant],48.1,1.87,1.69,1.78,2.86,85.3
AUUACCCUCGUGAUCGAGUGA [Fam2.1 aminoacylation ribozyme variant],10.8,10.4,4.47,4.09,11.6,70.3
AUUCACCUAGGUCAUCCCGUG [Fam2.2 aminoacylation ribozyme variant],5.25,4.13,3.32,3.25,4.87,26.7
AUUACUCUGUUCAUCGAGUGA [Fam2.1 aminoacylation ribozyme variant],3.94,2.88,1.9,1.94,3.42,3.86
CCACACUUCAAGCCAUCGGUG [Fam1B.1 aminoacylation ribozyme variant],4.89,4.72,3.57,4.15,6.79,31.3
AUUCAGCUAGGUGAUCGGGUG [Fam2.2 aminoacylation ribozyme variant],4.6,4.52,3.84,4.04,5.32,25.3
AUUACCCCGGUCAUCGAGUUA [Fam2.1 aminoacylation ribozyme variant],1.01,1.41,1.17,0.938,1.16,1.74
AUUCACCUAGGUCGACGGGUG [Fam2.2 aminoacylation ribozyme variant],2.19,2.93,1.88,1.87,3.27,13.3
AAGUCUGCUACUAGUCGCAAG [Fam3.1 aminoacylation ribozyme variant],0.731,0.856,0.699,0.84,1.15,0.846
CCACUCUUCAAGCAGUCGGUC [Fam1B.1 aminoacylation ribozyme variant],1.28,1.03,1.04,1.1,1.24,1.07
AAGUUUGCUAAUAGUCCCGAG [Fam3.1 aminoacylation ribozyme variant],2.65,1.28,1.22,1.27,1.31,1.54
UAGUUUGCUAAUAUUCGCAAG [Fam3.1 aminoacylation ribozyme variant],1.21,1.22,1.3,1.26,1.04,1.71
CCACCCUUCAAGCUAUCGGUC [Fam1B.1 aminoacylation ribozyme variant],1.09,0.845,1.08,1.43,1.11,0.937
CGACUUCUAACAAUCGGUCUG [Fam1A.1 aminoacylation ribozyme variant],0.591,0.936,0.905,0.931,0.917,0.961
AUCCACCUAGGACAUCGGGUG [Fam2.2 aminoacylation ribozyme variant],5.03,3.23,3.12,3.38,4.49,39.9
AUUUCCCUGGUCAUAGAGUGA [Fam2.1 aminoacylation ribozyme variant],12.2,9.7,4.67,4.88,9.78,61.5
AUUACCCUGAUCAUCGAGUGG [Fam2.1 aminoacylation ribozyme variant],2.13,2.82,1.52,1.62,2.42,2.77
AUUGCCAUGGUCAUCGAGUGA [Fam2.1 aminoacylation ribozyme variant],11.6,9.29,4.75,4.81,10.1,53.5

Sequence,self-aminoacylation [1],self-aminoacylation [2],self-aminoacylation [3],self-aminoacylation [4],self-aminoacylation [5],self-aminoacylation [6]
CCACACUUCAAGCGAUCAGUC [Fam1B.1 aminoacylation ribozyme variant],0.843,0.699,0.884,0.776,0.665,1.37
AUUACCGUAGUCAUCGAGUGA [Fam2.1 aminoacylation ribozyme variant],7.23,4.79,2.94,3.22,5.83,26
AAGUUCGCUAAUAGUCGCAGG [Fam3.1 aminoacylation ribozyme variant],2.2,2.87,2.54,1.89,3.87,2.51
CUACUUCAAGCAAUCGGUCAG [Fam1A.1 aminoacylation ribozyme variant],1.3,1.09,0.86,0.894,0.797,2.28
CUACUUCAUACAAUCGUUCUG [Fam1A.1 aminoacylation ribozyme variant],0.371,0.476,0.535,0.655,0.477,0.733
AAGCUUGCUAAUAGUAGCAAG [Fam3.1 aminoacylation ribozyme variant],2.48,1.08,1.39,1.3,1.55,2.27
CUAGUUCAAACAAGCGGUCUG [Fam1A.1 aminoacylation ribozyme variant],1.19,1.54,1.2,0.93,1.08,1.21
AAGGUUGCUAAUAGUCACAAG [Fam3.1 aminoacylation ribozyme variant],1.72,1.72,1.71,1.32,1.57,4.71
AUGACCCGGGUCAUCGAGUGA [Fam2.1 aminoacylation ribozyme variant],6.53,6.73,3.9,3.55,7.47,46.3
AAGUUUGCUAUGAGUCGCAAG [Fam3.1 aminoacylation ribozyme variant],0.54,0.644,0.692,0.974,0.778,0.664
AAGUUCGCUAAAAGUCGCAAG [Fam3.1 aminoacylation ribozyme variant],3.39,2.51,2.42,1.67,2.68,4.4
AAGCUUUCUAAUAGUCGCAAG [Fam3.1 aminoacylation ribozyme variant],1.93,1.44,2.02,1.71,1.81,3.08
AUUACCCUGGCCAUCGAGUCA [Fam2.1 aminoacylation ribozyme variant],0.66,0.714,0.78,0.826,0.727,0.47
AAGUUUGCUAAGAGUCGCAAG [Fam3.1 aminoacylation ribozyme variant],1.39,0.755,0.748,0.741,0.661,3.23
CCACUUCAAACAAUCCGUCUG [Fam1A.1 aminoacylation ribozyme variant],1.85,0.967,1.08,1.01,0.795,2.13
CUACUUCCAACACUCGGUCUG [Fam1A.1 aminoacylation ribozyme variant],0.796,1.03,0.978,0.958,1.01,0.522
AUUCACCUAGGUCAACGGGUU [Fam2.2 aminoacylation ribozyme variant],0.946,1.33,1.22,1.16,1.26,0.45
CUUACCCUGGUCAUCGAGUGG [Fam2.1 aminoacylation ribozyme variant],7.54,8.78,3.47,3.74,8.35,16.9
CUAAUUCAAACAAUCAGUCUG [Fam1A.1 aminoacylation ribozyme variant],1.44,0.702,0.659,0.772,0.674,3.65
AAGUUUGCUCAAAGUCGCAAG [Fam3.1 aminoacylation ribozyme variant],1.13,1.37,1.24,0.877,0.974,2.29
CUACGUCAAGCAAUCGGUCUG [Fam1A.1 aminoacylation ribozyme variant],1.17,1.39,1.63,1.72,1.47,1.88
CCACACUUAAAGCAAUCUGUC [Fam1B.1 aminoacylation ribozyme variant],0.349,0.391,0.463,0.676,0.414,0.686
AUUACGCUGGUCGUCGAGUGA [Fam2.1 aminoacylation ribozyme variant],1.37,1.25,1.37,1.36,1.49,4.94
AUCACCCUGGUCAGCGAGUGA [Fam2.1 aminoacylation ribozyme variant],10.5,8.22,4.13,4.3,8.3,38.2
AAGUUUGCUAAGAGUCGGAAG [Fam3.1 aminoacylation ribozyme variant],1.4,0.956,0.879,0.923,0.64,1.35
